The values that follow come from patent US20260007767A1 (ACADEMIA SINICA, published 2026).

The test has as its target T1, endogenous FLT3 on the plasma membranes of THP-1 or NOMO-1 cells (UniProt P36888 27-993, limits assumed).
T1 construct: whole, on cells
T1 sequence (looked up): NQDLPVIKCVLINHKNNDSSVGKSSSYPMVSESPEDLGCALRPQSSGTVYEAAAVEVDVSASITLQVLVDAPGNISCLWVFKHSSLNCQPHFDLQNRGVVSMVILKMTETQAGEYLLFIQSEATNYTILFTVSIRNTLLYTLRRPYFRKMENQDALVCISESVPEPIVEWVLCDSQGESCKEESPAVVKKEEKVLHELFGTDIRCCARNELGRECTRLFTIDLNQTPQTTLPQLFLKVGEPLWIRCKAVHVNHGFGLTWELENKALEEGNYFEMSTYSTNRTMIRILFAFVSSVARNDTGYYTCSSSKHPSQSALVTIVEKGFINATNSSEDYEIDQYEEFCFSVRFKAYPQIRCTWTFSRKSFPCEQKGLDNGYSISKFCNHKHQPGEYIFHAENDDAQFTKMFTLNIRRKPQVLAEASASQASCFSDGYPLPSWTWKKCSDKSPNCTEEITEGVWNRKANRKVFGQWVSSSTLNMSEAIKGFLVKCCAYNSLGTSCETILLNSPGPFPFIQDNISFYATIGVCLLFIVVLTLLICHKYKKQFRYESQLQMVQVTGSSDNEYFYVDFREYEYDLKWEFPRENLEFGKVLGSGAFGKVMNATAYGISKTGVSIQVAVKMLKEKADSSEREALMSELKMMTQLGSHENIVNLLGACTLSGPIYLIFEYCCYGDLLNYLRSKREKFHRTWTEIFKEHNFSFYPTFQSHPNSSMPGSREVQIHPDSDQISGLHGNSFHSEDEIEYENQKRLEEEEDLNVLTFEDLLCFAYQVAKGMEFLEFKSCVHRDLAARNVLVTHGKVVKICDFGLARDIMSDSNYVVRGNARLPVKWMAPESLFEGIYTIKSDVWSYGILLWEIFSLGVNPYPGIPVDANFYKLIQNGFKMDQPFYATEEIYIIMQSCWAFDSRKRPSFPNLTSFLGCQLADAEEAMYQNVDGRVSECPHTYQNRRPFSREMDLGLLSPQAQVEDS
The experiment in a line: interaction and colocalization in THP-1 or NOMO-1 cells (method not detailed).

B1: SCUBE1 on the cell surface of leukemia cells (THP-1, NOMO-1 and other lines) (other, human, UniProt Q8IWY4 24-988, looked up)
chain: GGSGLPGSVDVDECSEGTDDCHIDAICQNTPKSYKCLCKPGYKGEGKQCEDIDECENDYYNGGCVHECINIPGNYRCTCFDGFMLAHDGHNCLDVDECQDNNGGCQQICVNAMGSYECQCHSGFFLSDNQHTCIHRSNEGMNCMNKDHGCAHICRETPKGGVACDCRPGFDLAQNQKDCTLTCNYGNGGCQHSCEDTDTGPTCGCHQKYALHSDGRTCIETCAVNNGGCDRTCKDTATGVRCSCPVGFTLQPDGKTCKDINECLVNNGGCDHFCRNTVGSFECGCRKGYKLLTDERTCQDIDECSFERTCDHICINSPGSFQCLCHRGYILYGTTHCGDVDECSMSNGSCDQGCVNTKGSYECVCPPGRRLHWNGKDCVETGKCLSRAKTSPRAQLSCSKAGGVESCFLSCPAHTLFVPDSENSYVLSCGVPGPQGKALQKRNGTSSGLGPSCSDAPTTPIKQKARFKIRDAKCHLRPHSQARAKETARQPLLDHCHVTFVTLKCDSSKKRRRGRKSPSKEVSHITAEFEIETKMEEASDTCEADCLRKRAEQSLQAAIKTLRKSIGRQQFYVQVSGTEYEVAQRPAKALEGQGACGAGQVLQDSKCVACGPGTHFGGELGQCVSCMPGTYQDMEGQLSCTPCPSSDGLGLPGARNVSECGGQCSPGFFSADGFKPCQACPVGTYQPEPGRTGCFPCGGGLLTKHEGTTSFQDCEAKVHCSPGHHYNTTTHRCIRCPVGTYQPEFGQNHCITCPGNTSTDFDGSTNVTHCKNQHCGGELGDYTGYIESPNYPGDYPANAECVWHIAPPPKRRILIVVPEIFLPIEDECGDVLVMRKSASPTSITTYETCQTYERPIAFTSRSRKLWIQFKSNEGNSGKGFQVPYVTYDEDYQQLIEDIVRDGRLYASENHQEILKDKKLIKALFDVLAHPQNYFKYTAQESKEMFPRSFIKLLRSKVSRFLRPYK
notes: whole, on cells; Endogenous protein; in western blots it was in cell lysate; also called surface SCUBE1; membrane SCUBE1
Consider B1, for which the binding result was “binds”.
